Here are results for 9 molecules from patent US20030119072A1 (SIGNAL PHARMACEUTICALS, published 2003).

Where no end group is shown, it is not given here. The star is where a group is joined. Biotin = O=C1N[C@H]2[C@H](CS[C@H]2CCCCC(=O)*)N1; Ahx = NCCCCCC(=O)O

The target of test [1] is T1, GST-WWP1.2.
T1 construct: Coated on polystyrene plates; also called second WW domain of WWP1; WWP1 WW domain 2; not shown: glutathione S-transferase (GST) fusion partner
Put plainly: TRF (DELFIA) plate assay, GST-WW domain coated at 30 µg/mL, titrated with biotinylated peptide.

Test [2] deals with T2, GST-WWP1.3.
T2 construct: Coated on polystyrene plates; also called WWP1 WW domain 3; not shown: glutathione S-transferase (GST) fusion partner
T2 sequence (chain, as listed by the source): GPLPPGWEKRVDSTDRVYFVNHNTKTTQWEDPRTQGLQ
Described as above.

Test [3] concerns the target T3, GST-WWP1.4.
T3 construct: Coated on polystyrene plates; also called WWP1 WW domain 4; not shown: glutathione S-transferase (GST) fusion partner
The test is described as above.

A further test deals with T4, GST alone (UniProt P08515 1-218 = GST).
T4 construct: Control coated on plates in the TRF assay
T4 sequence (P08515 whole entry): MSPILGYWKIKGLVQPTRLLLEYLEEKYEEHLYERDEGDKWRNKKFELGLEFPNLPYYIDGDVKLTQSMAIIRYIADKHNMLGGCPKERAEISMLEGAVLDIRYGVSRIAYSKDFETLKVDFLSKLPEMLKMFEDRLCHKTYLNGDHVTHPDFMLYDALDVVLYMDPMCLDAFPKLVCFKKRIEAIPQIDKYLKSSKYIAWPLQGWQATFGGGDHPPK
Put plainly: TRF (DELFIA) plate assay, GST coated, biotinylated peptide in solution. Here is the method:
(§1) Each domain was individually expressed as a GST fusion protein. A TRF binding assay was used to evaluate interactions of PY motif peptides with these domains or GST alone. WW domains were bound to a 96-well polystyrene assay plate (Costar) overnight at 4° C. in a 200 mM carbonate buffer (Pierce, Rockford, Ill.) at different concentrations (0, 1, 3, 10 μg/mL). Unbound WW domain was washed away with distilled, deionized water and the plates were blocked with 1% BSA/carbonate buffer for 2 hours at room temperature. The plates were then washed with Tris/Tween buffer: 50 mM Tris pH 7.5, 100 mM NaCl, 1 mM EDTA, 1% BSA, 1 mM DTT, 0.1% Tween20, protease inhibitor cocktail (Boehringer-Mannheim).
(§2) These biotinylated peptides were solvated in Tris/Tween buffer and added to the assay plates (30 μM). The plates were incubated at 4° C. for varying amounts of capture time. The plates were then washed with PBS/0.1% Triton X100 and probed for 1 hour at room temperature with 1 μg/mL Europium-labeled streptavidin (DELFIA; Wallac Oy, Turku, Finland) in DELFIA Assay Buffer/0.1% Triton X100. The unbound Europium-labeled streptavidin was washed with PBS/0.1% Triton X100. Europium was released for time-resolved fluorescence measurements with the DELFIA Enhancement Buffer. Measurements were made on either the DELFIA 1234 or Victor fluorometers.

Test [4] has as its target T1, GST-WWP1.2. Description: TRF (DELFIA) plate assay, GST-WW domain coated at 0-10 µg/mL, biotinylated peptide 30 µM. The procedure: as §1, §2
The target of test [5] is T2, GST-WWP1.3. The description is as above. The procedure:
as §1, §2

Test [6] has as its target T3, GST-WWP1.4. The test is described as above. Here is the method:
as §1, §2

Test [7] addresses T1, GST-WWP1.2. Description: TRF (DELFIA) plate assay, peptide titration of coated GST-WW domain, GST background subtracted; nonlinear least squares fit and Scatchard analysis. The procedure:
FIGS. 8A-8B are graphs illustrating the binding of increasing concentrations of a Smad7 PY motif peptide to WWP1 WW domain peptides. In FIG. 8A, binding to four GST fusion peptides (GST-WWP1.1, GST-WWP1.2, GST-WWP1.3 and GST-WWP1.4) is shown, as well as binding to RSP5.2 WW domain. WW domain peptides were coated on polystyrene plates at the indicated receptor coating concentrations, and blocked with BSA. Biotinylated PY motif peptide was then added at the indicated concentrations. Binding was assessed using a time-resolved fluorescence assay and is shown as cps. FIG. 8B presents a Scatchard analysis of the Smad7 PY motif to WWP1.2 and WWP1.4, as indicated.
A detailed evaluation of the interactions of Smad 7 with the WWP1 WW domains and the second WW domain from RSP5 was undertaken. GST was used to correct for nonspecific background interactions. The peptide titration of the WW domains was evaluated by a nonlinear, least squares fit of the data and Scatchard analysis (FIGS. 8A-8B).

The target of test [8] is T5, GST-WWP1.1.
T5 construct: also called WWP1 WW domain 1; not shown: glutathione S-transferase (GST) fusion partner
T5 sequence (chain, as listed by the source): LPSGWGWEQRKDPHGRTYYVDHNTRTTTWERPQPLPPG
Put plainly: TRF (DELFIA) plate assay, GST-WW domain coated at 30 µg/mL, titrated with biotinylated peptide.

Test [9] concerns the target T5, GST-WWP1.1. Description: TRF (DELFIA) plate assay, GST-WW domain coated, biotinylated peptide in solution. Here is the method:
as §1, §2

The target of test [10] is T1, GST-WWP1.2. Described as above. Here is the method:
as §1, §2

For test [11], the target named is T2, GST-WWP1.3. The description is as above. Here is the method: as §1, §2
Test [12] deals with T3, GST-WWP1.4. The test is described as above. Here is the method: as §1, §2

T1 sequence (chain, as listed by the source): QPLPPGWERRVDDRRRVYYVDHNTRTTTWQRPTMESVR

B1: Smad6 PY motif peptide GPESPPPPYSRLSP (peptide)
peptide: GPESPPPPYSRLSP
modifications: not fully specified (N-terminus); also: biotin with C6 linker, end not given here
notes: also called Smad 6 peptide
B1: the binding result with GST-WWP1.2 [1], in the test with GST-WWP1.3 [2] and in the test with GST-WWP1.4 [3] was “binds” throughout.

B2: WBP1 PY motif peptide, Biotin-Ahx-HPGTPPPPYTVGPG-CONH2 (peptide)
peptide: {Biotin-Ahx}-HPGTPPPPYTVGPG-NH2
SMILES: CC(C)[C@H](NC(=O)[C@@H](NC(=O)[C@H](Cc1ccc(O)cc1)NC(=O)[C@@H]1CCCN1C(=O)[C@@H]1CCCN1C(=O)[C@@H]1CCCN1C(=O)[C@@H]1CCCN1C(=O)[C@@H](NC(=O)CNC(=O)[C@@H]1CCCN1C(=O)[C@H](Cc1c[nH]cn1)NC(=O)CCCCCNC(=O)CCCC[C@@H]1SC[C@@H]2NC(=O)N[C@@H]21)[C@@H](C)O)[C@@H](C)O)C(=O)NCC(=O)N1CCC[C@H]1C(=O)NCC(N)=O
notes: also called WBP1 peptide
As for B2, the binding result is recorded as “no binding (tested: 30 µM peptide)” with GST alone, “binds” with GST-WWP1.2 [4], “binds” in the test with GST-WWP1.3 [5] and “binds” in the test with GST-WWP1.4 [6].

B3: Smad7 PY motif peptide ELESPPPPYSRYPM (peptide)
peptide: ELESPPPPYSRYPM
modifications: not fully specified (N-terminus); also: biotin with C6 linker, end not given here
notes: also called Smad 7 peptide
In turn, B3 came in with a Kd in the test with GST-WWP1.2 [7] of 2.4 µM.

B4: Smad5 PY motif peptide PADTPPPAYMPPDD (peptide)
peptide: PADTPPPAYMPPDD
modifications: not fully specified (N-terminus); also: biotin with C6 linker, end not given here
notes: also called Smad 5 peptide
Consider B4, for which the binding result with GST-WWP1.2 [1], in the test with GST-WWP1.3 [2] and with GST-WWP1.4 [3] was “binds” each time.

B5: Smad2 PY motif peptide IPETPPPGYISEDG (peptide)
peptide: IPETPPPGYISEDG
modifications: not fully specified (N-terminus); also: biotin with C6 linker, end not given here
notes: also called Smad 2 peptide
For the molecule B5, the binding result with GST-WWP1.1 [8], with GST-WWP1.2 [1], with GST-WWP1.3 [2] and with GST-WWP1.4 [3] was “no binding” each time.

B6: Smad1 PY motif peptide PADTPPPAYLPPED (peptide)
peptide: {Biotin-Ahx}-PADTPPPAYLPPED-NH2
SMILES: CC(C)C[C@H](NC(=O)[C@H](Cc1ccc(O)cc1)NC(=O)[C@H](C)NC(=O)[C@@H]1CCCN1C(=O)[C@@H]1CCCN1C(=O)[C@@H]1CCCN1C(=O)[C@@H](NC(=O)[C@H](CC(=O)O)NC(=O)[C@H](C)NC(=O)[C@@H]1CCCN1C(=O)CCCCCNC(=O)CCCC[C@@H]1SC[C@@H]2NC(=O)N[C@@H]21)[C@@H](C)O)C(=O)N1CCC[C@H]1C(=O)N1CCC[C@H]1C(=O)N[C@@H](CCC(=O)O)C(=O)N[C@@H](CC(=O)O)C(N)=O
notes: also called Smad 1 PY peptide; Biotin-Ahx-PADTPPPAYLPPED-CONH2
As to B6, the binding result with GST-WWP1.1 [8], in the test with GST-WWP1.2 [1], with GST-WWP1.3 [2] and with GST-WWP1.4 [3] was “no binding” throughout.

B7: Smad3 PY motif peptide AGLTPPPGYLSEDG (peptide)
peptide: AGLTPPPGYLSEDG
modifications: not fully specified (N-terminus); also: biotin with C6 linker, end not given here
notes: also called Smad 3 peptide
As for B7, the binding result in the test with GST-WWP1.1 [8], with GST-WWP1.2 [1], with GST-WWP1.3 [2] and with GST-WWP1.4 [3] was “no binding” each time.

B8: Nedd PY motif peptide, Biotin-Ahx-IPGTPPPNYDSLRL-CONH2 (peptide)
peptide: {Biotin-Ahx}-IPGTPPPNYDSLRL-NH2
SMILES: CC[C@H](C)[C@H](NC(=O)CCCCCNC(=O)CCCC[C@@H]1SC[C@@H]2NC(=O)N[C@@H]21)C(=O)N1CCC[C@H]1C(=O)NCC(=O)N[C@H](C(=O)N1CCC[C@H]1C(=O)N1CCC[C@H]1C(=O)N1CCC[C@H]1C(=O)N[C@@H](CC(N)=O)C(=O)N[C@@H](Cc1ccc(O)cc1)C(=O)N[C@@H](CC(=O)O)C(=O)N[C@@H](CO)C(=O)N[C@@H](CC(C)C)C(=O)N[C@@H](CCCNC(=N)N)C(=O)N[C@@H](CC(C)C)C(N)=O)[C@@H](C)O
In the case of B8, the binding result in the test with GST alone, with GST-WWP1.1 [9], with GST-WWP1.2 [10], in the test with GST-WWP1.3 [11] and in the test with GST-WWP1.4 [12] was “no binding (tested: 30 µM peptide)” throughout.

B9: Mutant Nedd PY motif peptide, Biotin-Ahx-IPGTPPPNHDSLRL-CONH2 (peptide)
peptide: {Biotin-Ahx}-IPGTPPPNHDSLRL-NH2
SMILES: CC[C@H](C)[C@H](NC(=O)CCCCCNC(=O)CCCC[C@@H]1SC[C@@H]2NC(=O)N[C@@H]21)C(=O)N1CCC[C@H]1C(=O)NCC(=O)N[C@H](C(=O)N1CCC[C@H]1C(=O)N1CCC[C@H]1C(=O)N1CCC[C@H]1C(=O)N[C@@H](CC(N)=O)C(=O)N[C@@H](Cc1c[nH]cn1)C(=O)N[C@@H](CC(=O)O)C(=O)N[C@@H](CO)C(=O)N[C@@H](CC(C)C)C(=O)N[C@@H](CCCNC(=N)N)C(=O)N[C@@H](CC(C)C)C(N)=O)[C@@H](C)O
Consider B9, for which the binding result with GST alone, with GST-WWP1.1 [9], with GST-WWP1.2 [10], with GST-WWP1.3 [11] and with GST-WWP1.4 [12] was “no binding (tested: 30 µM peptide)” throughout.

For orientation: Kd means the concentration at which binding is half-saturated.
